According to the supplement of paper PMC9112550, “Optimization of the antimicrobial peptide Bac7 by deep mutational scanning” (BMC Biology, 2022):

Tested on: Escherichia coli TOP10
Assay: shrunken log2 fold change of peptide-encoding DNA abundance (4.5 h post-induction vs induction); higher = less antimicrobial activity (less host growth inhibition)
Conditions: time post-induction: 4.5 h; library: site-saturation at positions 5, 18, 19, 20
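Note: peptides expressed intracellularly from a pBAD plasmid library in pooled LB shake-flask culture, induced with 0.3% L-arabinose, DNA abundance read by NGS, three biological replicates, DESeq2 with apeglm shrinkage.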

Sequence | shrunken log2 fold change
RRIRDRPPRLPRPRPRPVAPPRP | 0.445
RRIRFRPPRLPRPRPRPPNGPRP | -0.0591
RRIRLRPPRLPRPRPRPKYHPRP | -0.472
RRIRMRPPRLPRPRPRPLLAPRP | 2.1
RRIRYRPPRLPRPRPRPGHQPRP | 0.0299
RRIRFRPPRLPRPRPRPGDTPRP | -0.309
RRIRSRPPRLPRPRPRPILSPRP | -0.329
RRIRDRPPRLPRPRPRPCCPPRP | -0.449
RRIRCRPPRLPRPRPRPHYDPRP | -0.687
RRIRGRPPRLPRPRPRPYRRPRP | -0.00129
RRIRERPPRLPRPRPRPWKWPRP | -0.0653
RRIRTRPPRLPRPRPRPKYWPRP | -0.254
RRIRTRPPRLPRPRPRPFNYPRP | -0.269
RRIRHRPPRLPRPRPRPDAMPRP | -0.00187
RRIRNRPPRLPRPRPRPAWRPRP | 0.526
RRIRSRPPRLPRPRPRPGKKPRP | -0.0502
RRIRARPPRLPRPRPRPYWAPRP | -0.106
RRIRDRPPRLPRPRPRPAYYPRP | -0.947
RRIRCRPPRLPRPRPRPGRPPRP | 0.106
RRIRQRPPRLPRPRPRPAASPRP | 0.129
RRIRMRPPRLPRPRPRPIDEPRP | -0.0525
RRIRNRPPRLPRPRPRPIVTPRP | -0.179
RRIRARPPRLPRPRPRPFARPRP | -0.0584
RRIRKRPPRLPRPRPRPDAGPRP | -0.034
RRIRVRPPRLPRPRPRPNNQPRP | -0.483

Sequence | shrunken log2 fold change
RRIRQRPPRLPRPRPRPDHNPRP | -0.328
RRIRWRPPRLPRPRPRPADCPRP | -0.00218
RRIRKRPPRLPRPRPRPYYFPRP | -0.234
RRIRCRPPRLPRPRPRPQWHPRP | 0.0206
RRIRARPPRLPRPRPRPAKQPRP | -0.197
RRIRQRPPRLPRPRPRPCIRPRP | -0.0303
RRIRRRPPRLPRPRPRPGKDPRP | -0.0528
RRIRPRPPRLPRPRPRPFGDPRP | -0.0184
RRIRTRPPRLPRPRPRPQKYPRP | -0.263
RRIRQRPPRLPRPRPRPMMAPRP | 0.216
RRIRPRPPRLPRPRPRPSQAPRP | 0.106
RRIRQRPPRLPRPRPRPISEPRP | 0.0446
RRIRVRPPRLPRPRPRPKKIPRP | 0.0852
RRIRWRPPRLPRPRPRPWCMPRP | -0.0174
RRIRTRPPRLPRPRPRPIFAPRP | 0.408
RRIRTRPPRLPRPRPRPGTVPRP | 0.0209
RRIRYRPPRLPRPRPRPSFYPRP | -1.06
RRIRERPPRLPRPRPRPTWHPRP | 0.358
RRIRIRPPRLPRPRPRPGGSPRP | -0.0491
RRIRFRPPRLPRPRPRPWQSPRP | 0.146
RRIRSRPPRLPRPRPRPHTFPRP | -1.36
RRIRFRPPRLPRPRPRPCMIPRP | -0.118
RRIRCRPPRLPRPRPRPPPTPRP | 1.48
RRIRVRPPRLPRPRPRPRIDPRP | -0.216
RRIRMRPPRLPRPRPRPACMPRP | 0.64

Sequence | shrunken log2 fold change
RRIRTRPPRLPRPRPRPQFSPRP | -0.823
RRIRARPPRLPRPRPRPIKGPRP | 0.3
RRIRNRPPRLPRPRPRPADIPRP | -0.183
RRIRHRPPRLPRPRPRPEMMPRP | -0.0229
RRIRPRPPRLPRPRPRPTFHPRP | 0.0667
RRIRPRPPRLPRPRPRPKPTPRP | 0.434
RRIRQRPPRLPRPRPRPEPIPRP | 0.047
RRIRDRPPRLPRPRPRPGCWPRP | 1.03
RRIRFRPPRLPRPRPRPLCFPRP | -0.211
RRIRERPPRLPRPRPRPDPWPRP | -0.12
RRIRRRPPRLPRPRPRPGGPPRP | 0.321
RRIRFRPPRLPRPRPRPKLAPRP | 0.559
RRIRFRPPRLPRPRPRPIHGPRP | -0.0163
RRIRWRPPRLPRPRPRPANAPRP | 0.711
RRIRSRPPRLPRPRPRPDYNPRP | -0.622
RRIRNRPPRLPRPRPRPQLGPRP | -0.124
RRIRFRPPRLPRPRPRPQYTPRP | -0.616
RRIRMRPPRLPRPRPRPMTDPRP | 0.0744
RRIRARPPRLPRPRPRPHIEPRP | -0.0716
RRIRFRPPRLPRPRPRPGFKPRP | 0.122
RRIRIRPPRLPRPRPRPRMIPRP | 2.5
RRIRVRPPRLPRPRPRPHANPRP | 0.25
RRIRRRPPRLPRPRPRPYIEPRP | -0.338
RRIRKRPPRLPRPRPRPFTNPRP | -0.0844
RRIRFRPPRLPRPRPRPGGVPRP | 0.106

Sequence | shrunken log2 fold change
RRIRHRPPRLPRPRPRPPTYPRP | -0.0835
RRIRARPPRLPRPRPRPKMKPRP | 0.131
RRIRERPPRLPRPRPRPERVPRP | -0.0309
RRIRVRPPRLPRPRPRPQSIPRP | -0.176
RRIRLRPPRLPRPRPRPVPPPRP | 0.245
RRIRNRPPRLPRPRPRPYDPPRP | -0.00192
RRIRHRPPRLPRPRPRPGMHPRP | -0.01
RRIRHRPPRLPRPRPRPNLIPRP | -0.00121
RRIRWRPPRLPRPRPRPTNLPRP | -0.0698
RRIRARPPRLPRPRPRPAVDPRP | 0.289
RRIRKRPPRLPRPRPRPPCTPRP | 0.193
RRIRGRPPRLPRPRPRPFVEPRP | 0.236
RRIRERPPRLPRPRPRPPLDPRP | 0.0357
RRIRPRPPRLPRPRPRPECLPRP | 0.0299
RRIRLRPPRLPRPRPRPDGYPRP | 0.0385
RRIRHRPPRLPRPRPRPGLQPRP | 0.157
RRIRKRPPRLPRPRPRPIIGPRP | 0.00654
RRIRERPPRLPRPRPRPDGYPRP | 0.0107
RRIRTRPPRLPRPRPRPKLIPRP | -0.0765
RRIRERPPRLPRPRPRPCGEPRP | -0.116
RRIRFRPPRLPRPRPRPHFKPRP | -0.599
RRIRRRPPRLPRPRPRPMAYPRP | -0.193
RRIRKRPPRLPRPRPRPEWFPRP | 0.219
RRIRERPPRLPRPRPRPQMLPRP | -0.0206
RRIRLRPPRLPRPRPRPKRLPRP | -0.0581

Sequence | shrunken log2 fold change
RRIRCRPPRLPRPRPRPNKHPRP | -0.541
RRIRARPPRLPRPRPRPIIDPRP | 0.216
RRIRRRPPRLPRPRPRPYMRPRP | 0.044
RRIRMRPPRLPRPRPRPLPIPRP | -0.0881
RRIRNRPPRLPRPRPRPQNPPRP | -0.117
RRIRARPPRLPRPRPRPRCAPRP | 0.716
RRIRKRPPRLPRPRPRPVVHPRP | 0.122
RRIRGRPPRLPRPRPRPNFLPRP | -0.0918
RRIRHRPPRLPRPRPRPWHQPRP | -0.0658
RRIRTRPPRLPRPRPRPMGGPRP | -0.0576
RRIRLRPPRLPRPRPRPEWAPRP | -0.0233
RRIRGRPPRLPRPRPRPPWDPRP | 0.832
RRIRRRPPRLPRPRPRPTCKPRP | 0.0874
RRIRFRPPRLPRPRPRPELEPRP | 0.537
RRIRGRPPRLPRPRPRPTPKPRP | 1.2
RRIRKRPPRLPRPRPRPVREPRP | 0.817
RRIRLRPPRLPRPRPRPENLPRP | 0.0256
RRIRHRPPRLPRPRPRPCSYPRP | -0.0203
RRIRMRPPRLPRPRPRPCKTPRP | -0.00146
RRIRLRPPRLPRPRPRPNELPRP | 0.0122
RRIRKRPPRLPRPRPRPAYVPRP | 0.108
RRIRWRPPRLPRPRPRPWYVPRP | -0.396
RRIRRRPPRLPRPRPRPWNHPRP | -0.0953
RRIRFRPPRLPRPRPRPLMVPRP | -0.38
RRIRQRPPRLPRPRPRPMLCPRP | -0.00319
